We go through 2 molecules from article PMC13649712, “Role of PER-WDR5 interactions in the mammalian circadian clock” (Nature Communications, 2026).

For this assay, the target named is preformed PER1 1013-1291/WDR5 22-334 complex (mouse, UniProt O35973 1013-1291; P61965 22-334). The experiment in a line: SEC; PER1 1013-1291, CRY1 1-496 or CRY2 1-512 and WDR5 22-334: equimolar mixture (60 min, 4 °C) or PER1/WDR5 complex pre-formed overnight and then equimolar CRY added for 60 min; dimeric complexes run for comparison; S200 10/300; 25 mM HEPES pH 7.5, 300 mM NaCl, 5% glycerol, 1 mM DTT. Conditions: both partners purified.

B1: mouse CRY2-PHR (1-512) (domain or fragment)
chain: MAAAAVVAATVPAQSMGADGASSVHWFRKGLRLHDNPALLAAVRGARCVRCVYILDPWFAASSSVGINRWRFLLQSLEDLDTSLRKLNSRLFVVRGQPADVFPRLFKEWGVTRLTFEYDSEPFGKERDAAIMKMAKEAGVEVVTENSHTLYDLDRIIELNGQKPPLTYKRFQALISRMELPKKPAVAVSSQQMESCRAEIQENHDDTYGVPSLEELGFPTEGLGPAVWQGGETEALARLDKHLERKAWVANYERPRMNANSLLASPTGLSPYLRFGCLSCRLFYYRLWDLYKKVKRNSTPPLSLFGQLLWREFFYTAATNNPRFDRMEGNPICIQIPWDRNPEALAKWAEGKTGFPWIDAIMTQLRQEGWIHHLARHAVACFLTRGDLWVSWESGVRVFDELLLDADFSVNAGSWMWLSCSAFFQQFFHCYCPVGFGRRTDPSGDYIRRYLPKLKGFPSRYIYEPWNAPESVQKAAKCIIGVDYPRPIVNHAETSRLNIERMKQIYQQLSRY
notes: Cryptochrome-2 (CRY2), mouse, photolyase homology region, residues 1-512; pCoofy27; tag-free after cleavage; also called CRY2 1-512
With B1, the binding result is listed as “binds”.

B2: mouse CRY1 1-496 (PHR) (domain or fragment)
chain: MGVNAVHWFRKGLRLHDNPALKECIQGADTIRCVYILDPWFAGSSNVGINRWRFLLQCLEDLDANLRKLNSRLFVIRGQPADVFPRLFKEWNITKLSIEYDSEPFGKERDAAIKKLATEAGVEVIVRISHTLYDLDKIIELNGGQPPLTYKRFQTLVSKMEPLEMPADTITSDVIGKCMTPLSDDHDEKYGVPSLEELGFDTDGLSSAVWPGGETEALTRLERHLERKAWVANFERPRMNANSLLASPTGLSPYLRFGCLSCRLFYFKLTDLYKKVKKNSSPPLSLYGQLLWREFFYTAATNNPRFDKMEGNPICVQIPWDKNPEALAKWAEGRTGFPWIDAIMTQLRQEGWIHHLARHAVACFLTRGDLWISWEEGMKVFEELLLDADWSINAGSWMWLSCSSFFQQFFHCYCPVGFGRRTDPNGDYIRRYLPVLRGFPAKYIYDPWNAPEGIQKVAKCLIGVNYPKPMVNHAEASRLNIERMKQIYQQLSRYRG
notes: pCoofy27; tag-free after cleavage; also called CRY1-PHR
For the molecule B2, the binding result is “binds”.
